We go through 2 molecules from PMC12859064.

This experiment has as its target Flag-Axin1 (mouse). In words: SPR; BIAcore 8K, CM5 chip; Flag-Axin1 immobilised by amine coupling (20 μg/mL, sodium acetate pH 4.5); analytes 25-400 nM, 30 μL/min, 120 s association, 300 s dissociation; step of the Axin1 self-association not told.

Flag-Axin1 (natural protein): the Kd (in general, the free concentration of one partner at which half of the binding sites on the other are occupied at equilibrium, for simple one-to-one binding) amounted to 0.147 µM.

B1: Flag-TRIM15 (natural protein)
chain: MPATPSLKVVHELPACTLCAGPLEDAVTIPCGHTFCRLCLPALSQMGAQSSGKILLCPLCQEEEQAETPMAPVPLGPLGETYCEEHGEKIYFFCENDAEFLCVFCREGPTHQAHTVGFLDEAIQPYRDRLRSRLEALSTERDEIEDVKCQEDQKLQVLLTQIESKKHQVETAFERLQQELEQQRCLLLARLRELEQQIWKERDEYITKVSEEVTRLGAQVKELEEKCQQPASELLQDVRVNQSRCEMKTFVSPEAISPDLVKKIRDFHRKILTLPEMMRMFSENLAHHLEIDSGVITLDPQTASRSLVLSEDRKSVRYTRQKKSLPDSPLRFDGLPAVLGFPGFSSGRHRWQVDLQLGDGGGCTVGVAGEGVRRKGEMGLSAEDGVWAVIISHQQCWASTSPGTDLPLSEIPRGVRVALDYEAGQVTLHNAQTQEPIFTFTASFSGKVFPFFAVWKKGSCLTLKG
In turn, B1 had a Kd of 0.0378 µM.
